Source: paper PMC4725879

Experiments:
[1] = tested on: LacI (lac repressor), wild type (Escherichia coli); test: EMSA; conditions: no IPTG; 5 mM Mg2+; EMSA: 20 mM Tris-HCl pH 8.0, 200 mM NaCl, 0.5 mM EDTA, 1 mM DTT, 5 mM MgCl2, 5% glycerol, 0.1 nM DNA, 22 C, 60 min; nicking assays at 37 C
[2] = tested on: LacI-Gly60+3 (Escherichia coli); test: EMSA; conditions: 5 mM Mg2+; EMSA: 20 mM Tris-HCl pH 8.0, 200 mM NaCl, 0.5 mM EDTA, 1 mM DTT, 5 mM MgCl2, 5% glycerol, 0.1 nM DNA, 22 C, 60 min; nicking assays at 37 C

Substance | Ka [1] | Ka [2]
lac O1 fragment | 1.2e+10 M⁻¹ | 1e+09 M⁻¹
lac O2 fragment |  | 6.2e+08 M⁻¹
lac Os fragment |  | 2.4e+09 M⁻¹
